{"source": "paper PMC4536637", "about": "“Unique Toll-Like Receptor 4 Activation by NAMPT/PBEF Induces NFκB Signaling and Inflammatory Lung Injury” (Scientific Reports, 2015)", "binders": {"B1": {"name": "recombinant human NAMPT/PBEF (nicotinamide phosphoribosyl-transferase / pre-B cell colony-enhancing factor) (natural protein, UniProt P43490 1-491, looked up)", "chain": "MNPAAEAEFNILLATDSYKVTHYKQYPPNTSKVYSYFECREKKTENSKLRKVKYEETVFYGLQYILNKYLKGKVVTKEKIQEAKDVYKEHFQDDVFNEKGWNYILEKYDGHLPIEIKAVPEGFVIPRGNVLFTVENTDPECYWLTNWIETILVQSWYPITVATNSREQKKILAKYLLETSGNLDGLEYKLHDFGYRGVSSQETAGIGASAHLVNFKGTDTVAGLALIKKYYGTKDPVPGYSVPAAEHSTITAWGKDHEKDAFEHIVTQFSSVPVSVVSDSYDIYNACEKIWGEDLRHLIVSRSTQAPLIIRPDSGNPLDTVLKVLEILGKKFPVTENSKGYKLLPPYLRVIQGDGVDINTLQEIVEGMKQKMWSIENIAFGSGGGLLQKLTRDLLNCSFKCSYVVTNGLGINVFKDPVADPNKRSKKGRLSLHRTPAGNFVTLEEGKGDLEEYGQDLLHTVFKNGKVTKSYSFDEIRKNAQLNIELEAAHH", "notes": "nicotinamide phosphoribosyl-transferase (NAMPT/PBEF/visfatin), human, bioactive non-denatured recombinant protein; also called rPBEF; visfatin; source: bought: MBL International"}}, "biological_target": "T1, recombinant human TLR4 (Toll-like receptor 4) (human, UniProt O00206 24-631)", "T1 construct": "Toll-like receptor 4, human, recombinant; No catalogue number is printed; also called rTLR4; source: bought: R&D Systems", "T1 sequence (O00206 24-631)": "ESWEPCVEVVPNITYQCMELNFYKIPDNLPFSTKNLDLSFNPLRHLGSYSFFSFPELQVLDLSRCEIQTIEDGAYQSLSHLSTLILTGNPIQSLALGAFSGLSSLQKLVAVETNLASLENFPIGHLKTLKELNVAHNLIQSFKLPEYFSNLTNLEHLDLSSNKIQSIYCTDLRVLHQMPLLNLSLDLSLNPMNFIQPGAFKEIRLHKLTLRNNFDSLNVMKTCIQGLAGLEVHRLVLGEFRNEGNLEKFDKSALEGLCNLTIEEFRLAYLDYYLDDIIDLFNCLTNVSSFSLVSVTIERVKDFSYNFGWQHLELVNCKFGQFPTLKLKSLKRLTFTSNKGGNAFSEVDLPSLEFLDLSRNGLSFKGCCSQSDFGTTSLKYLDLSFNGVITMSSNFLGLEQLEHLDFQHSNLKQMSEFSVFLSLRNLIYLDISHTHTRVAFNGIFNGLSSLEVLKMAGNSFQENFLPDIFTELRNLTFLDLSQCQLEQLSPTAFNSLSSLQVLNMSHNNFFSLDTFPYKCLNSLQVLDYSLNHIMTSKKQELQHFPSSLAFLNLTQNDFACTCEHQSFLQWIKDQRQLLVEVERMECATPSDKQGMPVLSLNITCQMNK", "experiment": "SPR; Bio-Rad ProteOn XPR36, GLC chip; Bethyl PBEF antibody covalently immobilised (5000 RU); rPBEF only (100 nM), rTLR4 only (1 uM) and pre-mixed rPBEF-rTLR4 injected over the antibody surface; PBST (10 mM phosphate, 150 mM NaCl, 0.05% Tween20, pH 7.4)", "details": "both partners purified"}
{"binder": "B1", "values": [{"measurement": "binding result", "value": "binds"}]}
